Assays:
Assay in all cases: holdup assay
Set-up in all cases: key: below the threshold = too weak to quantify, mostly under pKd 3.1 to 4
Conditions in all cases: plain residues with an end cap or a label only (N-terminal biotin on a linker: ado-ado)
Inadl_8, Q8NI35 = target: Inadl_8, Q8NI35
NHERF2_2, Q15599 = target: NHERF2_2, Q15599
GOPC, Q9HD26 = target: GOPC, Q9HD26
DFNB31_2, Q9P202 = target: T1, DFNB31_2, Q9P202
T1 sequence (Q9P202 274-371, limits assumed, looked up): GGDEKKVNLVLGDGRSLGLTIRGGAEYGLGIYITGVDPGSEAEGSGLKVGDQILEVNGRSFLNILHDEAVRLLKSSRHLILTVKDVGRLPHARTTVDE

APBA2_2, Q99767 = target: T2, APBA2_2, Q99767
T2 sequence (Q99767 654-744, limits assumed, looked up): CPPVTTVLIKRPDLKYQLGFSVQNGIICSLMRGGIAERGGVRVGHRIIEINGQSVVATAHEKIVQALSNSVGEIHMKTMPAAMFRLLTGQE

TJP1_3, Q07157 = target: TJP1_3, Q07157
APBA1_1, Q02410 = target: T3, APBA1_1, Q02410
T3 sequence (Q02410 651-752, limits assumed, looked up): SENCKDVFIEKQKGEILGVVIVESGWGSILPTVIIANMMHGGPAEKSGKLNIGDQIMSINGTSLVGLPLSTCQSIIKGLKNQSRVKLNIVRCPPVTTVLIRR

CASK, O14936 = target: CASK, O14936
MAGI1_1, Q96QZ7 = target: MAGI1_1, Q96QZ7
SYNJ2BP, P57105 = target: T4, SYNJ2BP, P57105
T4 sequence (P57105 8-110, limits assumed, looked up): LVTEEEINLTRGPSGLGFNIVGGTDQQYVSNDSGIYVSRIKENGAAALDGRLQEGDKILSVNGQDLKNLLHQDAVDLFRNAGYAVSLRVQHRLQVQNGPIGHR

DLG4_3, P78352 = target: DLG4_3, P78352
DLG4_2, P78352 = target: DLG4_2, P78352
PDZRN4_1, Q6ZMN7 = target: PDZRN4_1, Q6ZMN7
MAGI1_2, Q96QZ7 = target: MAGI1_2, Q96QZ7
PTPN13_1, Q12923 = target: T5, PTPN13_1, Q12923
T5 sequence (Q12923 1088-1188, limits assumed, looked up): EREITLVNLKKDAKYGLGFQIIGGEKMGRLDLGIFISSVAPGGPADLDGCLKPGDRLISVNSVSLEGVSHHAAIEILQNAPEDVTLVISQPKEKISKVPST

GRIP2_3, Q9C0E4 = target: GRIP2_3, Q9C0E4
GRIP1_7, Q9Y3R0 = target: T6, GRIP1_7, Q9Y3R0
T6 sequence (Q9Y3R0 999-1096, limits assumed, looked up): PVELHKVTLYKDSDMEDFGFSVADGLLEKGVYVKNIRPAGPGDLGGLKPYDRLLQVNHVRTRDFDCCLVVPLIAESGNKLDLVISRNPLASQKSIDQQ

GRIP1_3, Q9Y3R0 = target: T7, GRIP1_3, Q9Y3R0
T7 sequence (Q9Y3R0 247-346, limits assumed, looked up): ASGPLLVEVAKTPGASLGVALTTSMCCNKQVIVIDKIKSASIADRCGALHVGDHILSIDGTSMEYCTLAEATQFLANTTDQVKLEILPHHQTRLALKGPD

DFNB31_3, Q9P202 = target: T8, DFNB31_3, Q9P202
T8 sequence (Q9P202 811-907, limits assumed, looked up): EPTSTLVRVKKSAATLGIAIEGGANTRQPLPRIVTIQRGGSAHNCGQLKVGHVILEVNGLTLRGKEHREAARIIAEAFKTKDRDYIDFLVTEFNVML

MPP6, Q9NZW5 = target: T9, MPP6, Q9NZW5
T9 sequence (Q9NZW5 125-219, limits assumed, looked up): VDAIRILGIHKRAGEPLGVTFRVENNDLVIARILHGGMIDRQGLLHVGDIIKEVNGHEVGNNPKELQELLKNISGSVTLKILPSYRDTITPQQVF

SHANK1, Q9Y566 = target: T10, SHANK1, Q9Y566
T10 sequence (Q9Y566 658-767, limits assumed, looked up): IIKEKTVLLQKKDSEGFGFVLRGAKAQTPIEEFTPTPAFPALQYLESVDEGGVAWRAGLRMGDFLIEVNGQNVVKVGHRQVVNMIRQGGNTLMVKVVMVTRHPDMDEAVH

GRID2IP_1, A4D2P6 = target: GRID2IP_1, A4D2P6
FRMPD2_2, Q68DX3 = target: FRMPD2_2, Q68DX3
MPDZ_12, O75970 = target: T11, MPDZ_12, O75970
T11 sequence (O75970 1857-1958, limits assumed, looked up): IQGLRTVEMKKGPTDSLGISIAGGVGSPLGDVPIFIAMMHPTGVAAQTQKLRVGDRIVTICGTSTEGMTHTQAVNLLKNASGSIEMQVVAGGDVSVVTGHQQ

PDZD7_3, Q9H5P4 = target: T12, PDZD7_3, Q9H5P4
T12 sequence (Q9H5P4 857-944, limits assumed, looked up): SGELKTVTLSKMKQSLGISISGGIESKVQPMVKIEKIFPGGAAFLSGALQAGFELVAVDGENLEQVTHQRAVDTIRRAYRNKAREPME

MAST1, Q9Y2H9 = target: MAST1, Q9Y2H9

Measured: pKd

Chain of CASK, O14936 (O14936 487-570): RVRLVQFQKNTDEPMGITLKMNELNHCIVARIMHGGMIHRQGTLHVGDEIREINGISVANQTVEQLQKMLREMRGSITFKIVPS
Chain of Inadl_8, Q8NI35 (Q8NI35 1425-1530): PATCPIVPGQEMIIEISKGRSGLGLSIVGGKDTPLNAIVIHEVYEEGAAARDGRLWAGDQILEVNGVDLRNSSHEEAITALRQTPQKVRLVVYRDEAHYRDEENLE
Chain of NHERF2_2, Q15599 (Q15599 142-238): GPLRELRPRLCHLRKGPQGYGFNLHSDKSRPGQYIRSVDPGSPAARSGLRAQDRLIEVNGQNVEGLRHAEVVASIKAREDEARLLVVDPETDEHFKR
Chain of MAGI1_2, Q96QZ7 (Q96QZ7 456-580): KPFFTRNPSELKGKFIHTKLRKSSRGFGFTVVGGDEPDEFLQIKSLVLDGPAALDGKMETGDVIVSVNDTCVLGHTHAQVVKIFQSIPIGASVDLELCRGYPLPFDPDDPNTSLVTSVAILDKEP
Chain of GRID2IP_1, A4D2P6 (A4D2P6 1-87): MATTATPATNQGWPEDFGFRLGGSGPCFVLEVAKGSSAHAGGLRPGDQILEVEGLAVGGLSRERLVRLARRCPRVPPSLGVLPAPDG
Chain of GRIP2_3, Q9C0E4 (Q9C0E4 238-339): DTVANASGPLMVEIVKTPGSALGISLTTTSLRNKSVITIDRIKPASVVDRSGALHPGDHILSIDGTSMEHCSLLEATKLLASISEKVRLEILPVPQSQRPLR
Chain of DLG4_3, P78352 (P78352 306-403): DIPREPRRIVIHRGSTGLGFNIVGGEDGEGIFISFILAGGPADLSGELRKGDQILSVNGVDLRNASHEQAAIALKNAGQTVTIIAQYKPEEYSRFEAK
Chain of MAST1, Q9Y2H9 (Q9Y2H9 962-1065): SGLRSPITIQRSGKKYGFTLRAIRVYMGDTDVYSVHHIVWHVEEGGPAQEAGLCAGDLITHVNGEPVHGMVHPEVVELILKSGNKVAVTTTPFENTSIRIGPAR
Chain of PDZRN4_1, Q6ZMN7 (Q6ZMN7 213-318): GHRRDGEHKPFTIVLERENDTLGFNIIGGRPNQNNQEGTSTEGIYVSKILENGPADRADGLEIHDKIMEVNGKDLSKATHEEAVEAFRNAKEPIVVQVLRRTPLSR
Chain of FRMPD2_2, Q68DX3 (Q68DX3 944-1038): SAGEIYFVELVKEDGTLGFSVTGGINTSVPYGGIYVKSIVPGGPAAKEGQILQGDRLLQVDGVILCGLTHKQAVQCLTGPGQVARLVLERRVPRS
Chain of MAGI1_1, Q96QZ7 (Q96QZ7 1-106): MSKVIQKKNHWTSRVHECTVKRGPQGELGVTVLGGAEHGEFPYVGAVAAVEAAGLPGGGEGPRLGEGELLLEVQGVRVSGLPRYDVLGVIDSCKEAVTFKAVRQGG
Chain of DLG4_2, P78352 (P78352 155-259): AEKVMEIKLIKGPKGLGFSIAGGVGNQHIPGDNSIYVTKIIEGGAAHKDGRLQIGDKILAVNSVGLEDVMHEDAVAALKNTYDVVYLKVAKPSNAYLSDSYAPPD
Chain of TJP1_3, Q07157 (Q07157 416-512): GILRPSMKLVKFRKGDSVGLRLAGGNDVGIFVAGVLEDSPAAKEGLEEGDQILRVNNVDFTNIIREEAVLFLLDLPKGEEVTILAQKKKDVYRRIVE

B1: ERBB4, Q15303 (peptide)
chain: PPYRHRNTVV
3.89: GRID2IP_1, A4D2P6
4.08: GOPC, Q9HD26
4.36: SYNJ2BP, P57105
4.23: DLG4_3, P78352
below the threshold: NHERF2_2, Q15599 | DFNB31_2, Q9P202 | APBA2_2, Q99767 | TJP1_3, Q07157 | APBA1_1, Q02410 | CASK, O14936 | MAGI1_1, Q96QZ7 | PDZRN4_1, Q6ZMN7 | PTPN13_1, Q12923 | GRIP2_3, Q9C0E4 | GRIP1_7, Q9Y3R0 | GRIP1_3, Q9Y3R0 | DFNB31_3, Q9P202 | MPP6, Q9NZW5 | SHANK1, Q9Y566 | FRMPD2_2, Q68DX3 | MPDZ_12, O75970 | MAST1, Q9Y2H9
4.97: DLG4_2, P78352
4.29: Inadl_8, Q8NI35
4.63: PDZD7_3, Q9H5P4
4.21: MAGI1_2, Q96QZ7

B2: BANF1, O75531 (peptide)
chain: CLREWCDAFL
4.48: NHERF2_2, Q15599
3.52: CASK, O14936
3.72: APBA1_1, Q02410
below the threshold: Inadl_8, Q8NI35 | GOPC, Q9HD26 | DFNB31_2, Q9P202 | APBA2_2, Q99767 | TJP1_3, Q07157 | MAGI1_1, Q96QZ7 | SYNJ2BP, P57105 | DLG4_3, P78352 | DLG4_2, P78352 | PDZRN4_1, Q6ZMN7 | MAGI1_2, Q96QZ7 | GRIP2_3, Q9C0E4 | GRIP1_7, Q9Y3R0 | GRIP1_3, Q9Y3R0 | DFNB31_3, Q9P202 | MPP6, Q9NZW5 | GRID2IP_1, A4D2P6 | FRMPD2_2, Q68DX3 | PDZD7_3, Q9H5P4
4.96: MAST1, Q9Y2H9
3.67: MPDZ_12, O75970
3.58: PTPN13_1, Q12923
4.14: SHANK1, Q9Y566

B3: TRAF2, Q12933 (peptide)
chain: IKAIVDLTGL
3.91: NHERF2_2, Q15599
3.63: MAST1, Q9Y2H9
3.49: MPP6, Q9NZW5 | SHANK1, Q9Y566
below the threshold: Inadl_8, Q8NI35 | GOPC, Q9HD26 | DFNB31_2, Q9P202 | APBA2_2, Q99767 | TJP1_3, Q07157 | APBA1_1, Q02410 | CASK, O14936 | MAGI1_1, Q96QZ7 | SYNJ2BP, P57105 | DLG4_3, P78352 | DLG4_2, P78352 | PDZRN4_1, Q6ZMN7 | MAGI1_2, Q96QZ7 | PTPN13_1, Q12923 | GRIP2_3, Q9C0E4 | GRIP1_7, Q9Y3R0 | GRIP1_3, Q9Y3R0 | DFNB31_3, Q9P202 | GRID2IP_1, A4D2P6 | FRMPD2_2, Q68DX3 | MPDZ_12, O75970 | PDZD7_3, Q9H5P4

B4: AQP6, Q13520 (peptide)
chain: GSGAVEMESV
3.65: MAST1, Q9Y2H9
below the threshold: Inadl_8, Q8NI35 | NHERF2_2, Q15599 | GOPC, Q9HD26 | DFNB31_2, Q9P202 | APBA2_2, Q99767 | TJP1_3, Q07157 | APBA1_1, Q02410 | CASK, O14936 | MAGI1_1, Q96QZ7 | SYNJ2BP, P57105 | DLG4_3, P78352 | DLG4_2, P78352 | PDZRN4_1, Q6ZMN7 | MAGI1_2, Q96QZ7 | PTPN13_1, Q12923 | GRIP2_3, Q9C0E4 | GRIP1_7, Q9Y3R0 | GRIP1_3, Q9Y3R0 | DFNB31_3, Q9P202 | MPP6, Q9NZW5 | SHANK1, Q9Y566 | GRID2IP_1, A4D2P6 | FRMPD2_2, Q68DX3 | MPDZ_12, O75970 | PDZD7_3, Q9H5P4

B5: HCN2, Q9UL51 (peptide)
chain: SARSRLSSNL
3.53: PDZRN4_1, Q6ZMN7
4.09: SHANK1, Q9Y566 | PDZD7_3, Q9H5P4
below the threshold: Inadl_8, Q8NI35 | DFNB31_2, Q9P202 | APBA2_2, Q99767 | TJP1_3, Q07157 | APBA1_1, Q02410 | CASK, O14936 | MAGI1_1, Q96QZ7 | DLG4_3, P78352 | DLG4_2, P78352 | PTPN13_1, Q12923 | GRIP2_3, Q9C0E4 | GRIP1_7, Q9Y3R0 | GRIP1_3, Q9Y3R0 | DFNB31_3, Q9P202 | MPP6, Q9NZW5 | GRID2IP_1, A4D2P6 | FRMPD2_2, Q68DX3 | MPDZ_12, O75970
4.44: NHERF2_2, Q15599
4.65: MAST1, Q9Y2H9
4.17: MAGI1_2, Q96QZ7
3.5: GOPC, Q9HD26
3.76: SYNJ2BP, P57105
